Measurements published in patent US7132258B1, “Nucleic acid encoding vitamin D receptor related polypeptide” (University of Massachusetts, priority 1998, dated 2006).

Assays:
[1] = target: T1, Gal4 DBD fusion of the LBD of hRARα (Homo sapiens, UniProt P10276); experiment: Coactivation of Gal-RAR on Gal4-tk-Luc reporter in A549 cells; format: cell-based; settings: overexpression of RAC3, 100 nM atRA, 24 hours
T1 construct: Gal4 DBD fusion of the LBD of hRARα (Gal-RAR); expressed in transfected cells; host or cells: A549 human lung carcinoma cells
Method: Monkey kidney-derived CV-1 cells and human lung carcinoma A549 cells were grown in phenol-free DMEM medium supplemented with 10% charcoal-stripped fetal bovine serum (Gibco). One day before transfection, cells were seeded in 12-well plates at a density of 50,000 cells per well. A mixture of DNAs was prepared that contained 0.5 μg of expression vector, 0.5 μg of pCMX-βGal used as internal control for transfection efficiency, 1 μg of luciferase reporter, and 1.5 μg of carrier DNA (PGEM) in a final volume of 30 μl. The DNA solution was mixed dropwise with one volume of 0.5 M CaCl2 and two volumes of 2×BBS (50 mM N,N-bis(2-hydroxyethyl)-2-aminoethanesulfonic acid (BES; Calbiochem), 280 mM NaCl, 1.5 mM Na2HPO4, pH 6.95). DNA precipitates were allowed to form at room temperature for 10 minutes and applied evenly to the cell cultures. Cells were allowed to transfect for 12 hours, then the precipitates were removed by washing transfected cells twice with phosphate buffered saline (PBS). […]
Luciferase and β-galactosidase assays were used to analyze the cultures. […] The luciferase activities were determined with MLX microtiter plate luminometer (Dynex) using 100 μl of assay solution (0.1 M KPO4, 5 mM ATP, 10 mM MgCl2) and 100 μl of luciferin solution (0.01 M D-luciferin in 0.1 M KPO4, pH 7.8). […]

[2] = target: T2, COUP (LBD of COUP-TFI) (Homo sapiens, UniProt P10589); experiment: Yeast two-hybrid interaction with COUP-TFI; format: binding; settings: β-galactosidase ONPG assay
T2 construct: COUP (LBD of COUP-TFI); expressed in transfected cells; host or cells: Saccharomyces cerevisiae Y190
T2 sequence (P10589 184-410 limits assumed): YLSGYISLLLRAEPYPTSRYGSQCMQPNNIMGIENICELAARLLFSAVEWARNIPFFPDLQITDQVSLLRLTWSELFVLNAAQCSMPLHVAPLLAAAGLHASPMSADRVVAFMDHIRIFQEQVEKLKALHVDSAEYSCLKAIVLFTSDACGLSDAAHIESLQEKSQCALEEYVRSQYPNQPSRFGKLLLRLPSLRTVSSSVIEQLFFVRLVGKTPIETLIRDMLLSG
Method: (§1) The protein—protein interactions between RAC3 and several steroid/nuclear receptors were analyzed by the yeast two-hybrid system. The original two-hybrid clone, RAC3.1 in pGAD10 vector, was retransformed together with yeast expression vectors for Gal4 DBD fusion of selected hormone receptor genes into Y190 cells. The receptors used include RAR (full-length hRARα), RXR (full-length hRXRα), VDR (LBD of human Vitamin D receptor), PPAR (LBD of mPPARα), TR (LBD) of hTRβ), COUP (LBD of COUP-TFI). Three independent colonies from each transformation were selected and analyzed for expression of […] activities by liquid ONPG assay (FIG. 6) after treatment with 1 μM of corresponding ligands (closed bars), or with equal concentration of vehicle alone (open bars). […] The ligands used in these experiments were atRA, VitD3 (1,25-dihydroxyvitamin D3), and Wy (Wy 14,642). […] In the absence of ligand, RAC3 can interact with RAR and PPAR.

[3] = target: T3, VDR (LBD of human Vitamin D receptor) (Homo sapiens, UniProt P11473); experiment: Yeast two-hybrid interaction with VDR; format: binding; settings: β-galactosidase ONPG assay, 1 μM ligand or vehicle
T3 construct: VDR (LBD of human Vitamin D receptor); expressed in transfected cells; host or cells: Saccharomyces cerevisiae Y190
T3 sequence (P11473 127-423 limits assumed): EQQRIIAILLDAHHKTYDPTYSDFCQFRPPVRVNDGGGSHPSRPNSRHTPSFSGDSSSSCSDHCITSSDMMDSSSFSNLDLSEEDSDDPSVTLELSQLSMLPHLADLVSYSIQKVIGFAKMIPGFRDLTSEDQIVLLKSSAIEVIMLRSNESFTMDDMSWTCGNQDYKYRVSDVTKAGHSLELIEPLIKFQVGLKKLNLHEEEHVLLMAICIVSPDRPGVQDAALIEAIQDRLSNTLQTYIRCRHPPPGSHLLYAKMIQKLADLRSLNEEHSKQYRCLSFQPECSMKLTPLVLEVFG
T3 sequence (Q9Y6Q9 401-1204 E704Q partner limits assumed): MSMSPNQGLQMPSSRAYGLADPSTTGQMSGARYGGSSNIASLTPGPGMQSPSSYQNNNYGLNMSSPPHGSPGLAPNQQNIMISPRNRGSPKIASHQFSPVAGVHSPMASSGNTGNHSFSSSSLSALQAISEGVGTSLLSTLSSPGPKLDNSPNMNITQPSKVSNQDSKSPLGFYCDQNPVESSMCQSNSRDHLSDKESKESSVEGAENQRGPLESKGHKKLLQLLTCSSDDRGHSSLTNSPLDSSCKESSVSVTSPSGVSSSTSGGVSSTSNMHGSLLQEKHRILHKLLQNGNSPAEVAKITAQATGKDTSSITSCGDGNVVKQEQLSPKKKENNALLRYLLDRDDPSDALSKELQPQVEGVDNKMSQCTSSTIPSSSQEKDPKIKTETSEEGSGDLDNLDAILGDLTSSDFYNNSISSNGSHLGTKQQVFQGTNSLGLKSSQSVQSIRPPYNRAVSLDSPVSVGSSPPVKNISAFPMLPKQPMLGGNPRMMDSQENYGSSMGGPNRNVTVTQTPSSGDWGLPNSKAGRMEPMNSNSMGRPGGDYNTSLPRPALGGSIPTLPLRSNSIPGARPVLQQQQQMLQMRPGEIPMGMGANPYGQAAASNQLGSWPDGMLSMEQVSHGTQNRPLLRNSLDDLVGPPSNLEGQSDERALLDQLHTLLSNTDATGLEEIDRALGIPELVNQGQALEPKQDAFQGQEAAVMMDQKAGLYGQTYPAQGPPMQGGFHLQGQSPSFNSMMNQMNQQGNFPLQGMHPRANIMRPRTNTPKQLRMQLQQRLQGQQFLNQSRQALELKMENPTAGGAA
Method: as §1

T1 sequence (P10276 183-417 limits assumed): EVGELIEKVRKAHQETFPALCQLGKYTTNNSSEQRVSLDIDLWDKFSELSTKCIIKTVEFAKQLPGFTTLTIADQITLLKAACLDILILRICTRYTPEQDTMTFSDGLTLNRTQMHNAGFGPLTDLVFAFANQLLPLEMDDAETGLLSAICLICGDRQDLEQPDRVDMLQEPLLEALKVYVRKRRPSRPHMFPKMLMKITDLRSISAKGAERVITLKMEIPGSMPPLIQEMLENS
T1 sequence (Q9Y6Q9 with tags, fused parts or gaps isoform Q9Y6Q9-5 D131E/G132A/T187P/E704Q/DEL1268-1272 partner): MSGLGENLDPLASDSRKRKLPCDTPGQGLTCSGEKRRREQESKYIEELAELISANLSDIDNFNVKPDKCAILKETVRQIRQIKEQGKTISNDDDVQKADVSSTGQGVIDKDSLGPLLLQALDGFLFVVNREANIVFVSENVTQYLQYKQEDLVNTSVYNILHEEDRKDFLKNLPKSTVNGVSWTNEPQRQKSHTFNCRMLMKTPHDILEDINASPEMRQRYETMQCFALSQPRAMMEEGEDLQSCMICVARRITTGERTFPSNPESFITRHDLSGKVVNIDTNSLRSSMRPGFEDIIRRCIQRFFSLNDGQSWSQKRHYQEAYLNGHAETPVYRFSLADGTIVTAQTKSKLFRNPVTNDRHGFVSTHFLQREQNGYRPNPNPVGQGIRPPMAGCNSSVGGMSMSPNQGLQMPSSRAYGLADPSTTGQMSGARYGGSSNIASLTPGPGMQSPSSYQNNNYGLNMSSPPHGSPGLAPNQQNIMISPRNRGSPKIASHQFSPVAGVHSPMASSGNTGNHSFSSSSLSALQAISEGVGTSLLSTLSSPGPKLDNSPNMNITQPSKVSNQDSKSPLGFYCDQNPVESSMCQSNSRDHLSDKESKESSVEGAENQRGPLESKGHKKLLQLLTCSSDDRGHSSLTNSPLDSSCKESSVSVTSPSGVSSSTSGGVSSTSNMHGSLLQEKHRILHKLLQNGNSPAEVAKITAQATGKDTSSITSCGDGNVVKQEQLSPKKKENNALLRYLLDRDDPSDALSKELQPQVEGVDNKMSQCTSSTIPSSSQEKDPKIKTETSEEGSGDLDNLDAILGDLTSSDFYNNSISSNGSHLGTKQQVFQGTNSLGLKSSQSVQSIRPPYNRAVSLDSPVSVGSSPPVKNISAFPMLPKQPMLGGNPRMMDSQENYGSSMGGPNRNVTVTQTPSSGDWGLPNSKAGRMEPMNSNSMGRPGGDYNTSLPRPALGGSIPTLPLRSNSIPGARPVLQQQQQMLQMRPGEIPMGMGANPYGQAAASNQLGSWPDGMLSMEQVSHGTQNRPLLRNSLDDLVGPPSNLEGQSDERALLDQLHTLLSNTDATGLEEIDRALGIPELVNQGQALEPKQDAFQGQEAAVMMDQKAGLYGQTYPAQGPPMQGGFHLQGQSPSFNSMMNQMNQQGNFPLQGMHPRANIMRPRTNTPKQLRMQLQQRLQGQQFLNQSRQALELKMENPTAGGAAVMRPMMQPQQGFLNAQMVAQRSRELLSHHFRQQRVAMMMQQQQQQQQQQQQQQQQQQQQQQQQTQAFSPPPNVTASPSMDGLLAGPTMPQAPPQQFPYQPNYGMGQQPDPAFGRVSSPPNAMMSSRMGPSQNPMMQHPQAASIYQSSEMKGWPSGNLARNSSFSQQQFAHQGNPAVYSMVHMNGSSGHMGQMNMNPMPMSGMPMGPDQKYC

enhancement of ligand-dependent transcriptional activation by Gal4 DBD fusion of RAR [1]: about two-fold
interaction with COUP-TFI [2]: did not interact
interaction with VDR [3]: ligand-dependent manner
Substance: RAC3: transcriptional coactivator of steroid/nuclear receptors, protein of about 1417 amino acids (SEQ ID NO:2); RAC3.1 is the two-hybrid clone, amino acids 401–1204
